{"source": "patent US20220144895A1", "about": "“DE NOVO DESIGN OF TUNABLE PH-DRIVEN CONFORMATIONAL SWITCHES” (University of Washington, priority 2019, published 2022)", "molecules": {"B1": {"name": "SEQ ID NO: 40: as SEQ ID NO: 39 but third asparagine network mutated to all hydrophobics (protein)", "chain": "GSEEEIKRLLEELRKALEELRRITKELDDLSKELRVGGSGSGSLVPRGSGSGSGSHALVEHNKLISEHNRIVVEVLRIIAEILEAIARVGGSGSGSVEVERILDELRKALEELDRVTKELKKLTEELDVGGSGSGSLVPRGSGSGSGSVEALVRHNVLITRHNDIVVKVLDIIAKILKLIAEAVGGSGSGSELERILRELEEALKELRKATEELRRLSEELKVGGSGSGSLVPRGSGSGSGSHEALVRHNEAIVEHNKIVVKVLDIIAKILELITERI"}, "B2": {"name": "SEQ ID NO: 39: similar to pRO2.3, Thrombin cleavage sites on each loop, destabilizing I56V mutation (protein)", "chain": "GSEEEIKRLLEELRKSSEELRRITKELDDLSKELRVGGSGSGSLVPRGSGSGSGSHALVEHNKLISEHNRIVVENNRIIVEILEAIARVGGSGSGSVEVERILDELRKSSEELDRVTKELKKLTEELDVGGSGSGSLVPRGSGSGSGSVEALVRHNVLITRHNDIVVKNNDIINKILKLIAEAVGGSGSGSELERILRELEESTKELRKATEELRRLSEELKVGGSGSGSLVPRGSGSGSGSHEALVRHNEAIVEHNKIVVKNNDIIVKILELITERI"}, "B3": {"name": "pRO-3.1: pRO-3 variant, SEQ ID NO: 25-26 (protein)", "chain 1": "MGSHHHHHHGSGSENLYFQGSEALYELEKATRELKKATDELERATEELEKNPSEDALVEHNRLIAEHNKIIAEHNRIIAKVLK", "chain 2": "GSEALYELEKATRELKKATDELERATEELEKNPSEDALVEHNRLIAEHNKIIAEHNRIIAKVLK"}, "B4": {"name": "pRO-3: designed homotrimer, SEQ ID NO: 23-24 (protein)", "chain 1": "B3 chain 1 with T31L, D39A, E40A, E46A, E49K, E66A, H74V, N75L", "chain 2": "B3 chain 2 with T12L, D20A, E21A, E27A, E30K, E47A, H55V, N56L"}, "B5": {"name": "2L6HC3_13: previous designed homotrimer lacking buried histidines, PDB ID 5J0H (protein)", "chain": "GTKYELRRALEELEKALRELKKSLDELERSLEELEKNPSEDALVENNRLNVENNKIIVEVLRIIAEVLKINAKSD"}, "B6": {"name": "pRO-2.1 subunit (designed binder)", "chain": "SEYEIRKALEELKAALAELKRATASLRAITEELKKNPSEDALVEHNRAIVEHNAIIVEVLRIIAAVLELIVRAIK", "notes": "forms a homotrimer; Tag-free form"}, "B7": {"name": "pRO-2.5 subunit (designed binder)", "chain": "B6 chain with A15S, L16T, I29S, H45N, A48L, V59N, L60N", "notes": "forms a homotrimer; Tag-free form; also called PDB 6MSR"}, "B8": {"name": "pRO-2.5: pRO-2 variant, SEQ ID NO: 11-12 (protein)", "chain 1": "MGSHHHHHHGSGSENLYFQGSEYEIRKALEELKASTAELKRATASLRASTEELKKNPSEDALVENNRLIVEHNAIIVENNRIIAAVLELIVRAIK", "chain 2": "B6 chain with A15S, L16T, I29S, H45N, A48L, V59N, L60N"}, "B9": {"name": "pRO-2 I70N: pRO-2 mutant, SEQ ID NO: 21-22 (protein)", "chain 1": "B8 chain 1 with S35A, S49I, N65H, L68A, N79H, I90N", "chain 2": "GSEYEIRKALEELKAATAELKRATASLRAITEELKKNPSEDALVEHNRAIVEHNAIIVEHNRIIAAVLELNVRAIK"}, "B10": {"name": "pRO-2 A54M: pRO-2 mutant, SEQ ID NO: 19-20 (protein)", "chain 1": "B8 chain 1 with S35A, S49I, N65H, L68A, A74M, N79H", "chain 2": "B9 chain 2 with A55M, N71I"}}, "key": {"[1]": {"experiment": "Fluorescence dequenching liposome leakage (liposome disruption) assay", "type": "biochemical", "settings": "for pH-dependent liposome disruption: 2.5 μM protein with respect to monomer, SRB leakage; for liposome disruption activity at pH 4.75: pH 4.75, 2.5 μM protein", "method": "Liposomes composed of DOPC (1,2-dioleoyl-sn-glycero-3-phosphocholine), DOPC with 25% cholesterol (molar ratio to DOPC), 3:1 DOPC:POPS (1-palmitoyl-2-oleoyl-sn-glycero-3-phospho-L-serine), and 3:1 DOPC:POPS with 25% cholesterol were prepared identically to a final concentration of 5 mM total lipid as previously described (32); lipids from Avanti Polar Lipids. Lipids solubilized in chloroform were dried under nitrogen gas and stored under vacuum for a minimum of 2 hours to remove residual solvent. The dried lipid film was the resuspended in Tris buffer (10 mM Tris, 150 mM NaCl, and 0.02% NaN3 pH 8.0) containing 25 mM Sulforhodamine B (SRB) fluorophore (Sigma) and subjected to 10 sequential freeze thaw cycles in liquid nitrogen. Liposomes were extruded 29 times through 100 nm pore size polycarbonate filters (Avanti Polar Lipids) and purified from free fluorophore using a PD-10 gel filtration column (GE Healthcare) into storage buffer (10 mM Tris, 150 mM NaCl, and 0.02% NaN3 pH 8.0). Liposome size and homogeneity was analyzed by dynamic light scattering (DLS) using a Dynapro Nanostar™ DLS (Wyatt Technologies). On average liposome diameter ranged from 120-130 nm with low polydispersity. Liposomes were stored at 4° C. and used within 5 days of preparation.\nLiposome disruption and content leakage was analyzed by fluorescence spectroscopy as previously described (32). […] The solution was rapidly acidified to the target pH by addition of a fixed volume of acidification buffer and incubated for 20 minutes. […] SRB fluorescence is independent of pH within the ranges used here. Finally. Triton X-100 (Sigma) was added to a final concentration of 1% to fully disrupt liposomes. Liposome disruption as indicated by content leakage and SRB dequenching was normalized using the formula [Fω−F(0)]/[F(Max)−F(0)] where F(0) is the average fluorescence intensity before acidification and F(Max) is the average fluorescence intensity ater addition of Triton X-100. All measurements were collected on a Varian Cary Eclipse spectrophotometer using an excitation/emission pairing of […] and 2.5 nm slit widths at 24° C. Any data plotted together was collected using the sum batch of liposomes."}, "[2]": {"experiment": "Native mass spectrometry of pH-induced changes in oligomeric state", "type": "physicochemical", "settings": "for pH response of oligomeric state (pH-induced disassembly) / pH transition point of disassembly (pH set point, pH0): native MS; for pH response of oligomeric state (pH-induced disassembly): pH ~7 to ~3; for reversibility of disassembly: pH lowered with acetic acid, then raised by ammonia or buffer exchange; for cooperativity of the pH-induced transition: native MS at different pH values; for pH transition point of disassembly (pH set point, pH0): evaluated from pH 7 down to pH 3", "method": "Samples were buffer exchanged twice into 200 mM ammonium acetate (NH4Ac; MilliporeSigma) using Micro Bio-Spin P-6 columns (Bio-Rad). Protein concentrations were determined by UV absorbance using a Nanodrop 2000c spectrophotometer (Thermo Fisher Scientific) and diluted to make up a 10-fold stock solution (50 μM and 16.7 μM monomer and trimer concentration, respectively). 1 μL of this solution was mixed with 9 μL 200 mM NH4Ac/50 mM triethylammonium acetate (TEAA; MilliporeSigma), adjusted with acetic acid (Fisher Scientific) to obtain the desired final pH and incubated on ice for 30 min. […] 5 μL samples were filled into an in-house pulled glass capillary and ionized by nESI at a monomer or a trimer concentration of 5 μM or 1.67 μM respectively. All pH titration data were acquired on an in-house modified SYNAPT® G2 HDMS (Waters Corporation) with a surface-induced dissociation (SID) device incorporated between a truncated trap traveling wave ion guide and the ion mobility cell (39). The following instrument parameters were used spray voltage 0.9-1.3 kV; sampling cone, 20 V; extraction cone, 2 V; source temperature, room temperature; trap gas flow, 4 mL/min; trap bins, 45V. The data were processed with MassLynx™ v4.1 and DriftScope™ v2.1. For relative quantification, charge state series were extracted from DriftScope™, and smoothed spectra (mean; window 20; number of smooths 20) were integrated.\nPython scripts were written to generate theoretical models according Equation 1, and curve-fitting to native mass spectrometry data (FIGS. 1, 3, 5) according to Equation 2 by nonlinear least squares using curve fit from scipy.optimize. The free energy estimates for individual n, m, and l layers used in Equation 1 modeling were estimated by solving linear equations as follows: values for the free energy of folding for designs pRO-2 and variants were estimated from GdmCl denaturation experiments (FIG. 11); each of these designs have different numbers of n, m, and l layers, thus series of linear equations relating the number of each layer type to the total free energies of folding were solved to estimate dG values of the individual layers of each type."}, "[3]": {"experiment": "Circular dichroism: GdmCl chemical denaturation and temperature melts", "settings": "CD at 222 nm, PBS pH 7.4 or Na2PO4-Citrate at lower pH", "text": "For low-pH experiments involving circular dichroism (CD), small-angle X-ray scattering (SAXS), and size exclusion chromatography (SEC), Na2PO4-Citrate buffer was used to ensure that a single buffer system could be used that was stable over the entire pH range to be tested. Buffers were made using established ratios of stock solutions of 0.2 M Na2PO4 and 0.1 M Citrate; final pH was adjusted using hydrochloric acid (HCl) or sodium hydroxide (NaOH) if needed.\nCD wavelength scans (260 to 195 nm) and temperature melts (25 to 95° C.) were measured using a JASCO™ J-1500 or an AVIV™ model 420 CD spectrometer. Temperature melts monitored absorption signal at 222 nm and were carried out at a heating rate of 4° C./min; protein samples were at 0.25 mg/mL in either phosphate buffered saline (PBS) pH 7.4 or Na2PO4-Citrate at indicated pH values (see Buffers systems for varying pH). Guanidinium chloride (GdmCl) titrations were all performed on an AVIV 420 spectrometer with an automated titration apparatus using either PBS pH 7.4 or Na2PO4-Citrate buffers at indicated pH at room temperature, monitoring helical signal at 222 nm, using a protein concentration of 0.025 mg/mL in a 1 cm cuvette with stir bar. Each titration consisted of at least 30 evenly distributed concentration points with one minute mixing time for each step. Titrant solution consisted of the same concentration of protein in the same buffer system plus GdmCl; GdmCl concentration of starting solutions was determined by reactive index."}, "[4]": {"target": "the molecule itself", "experiment": "native mass spectrometry; homotrimer", "method": "Oligomeric state was assessed by size-exclusion chromatography (SEC) and native mass spectrometry (24).\nSamples were buffer exchanged twice into 200 mM ammonium acetate (NH₄Ac; MilliporeSigma) using Micro Bio-Spin P-6 columns (Bio-Rad). Protein concentrations were determined by UV absorbance using a Nanodrop 2000c spectrophotometer (Thermo Fisher Scientific) and diluted to make up a 10-fold stock solution (50 μM and 16.7 μM monomer and trimer concentration, respectively). 1 μL of this solution was mixed with 9 μL 200 mM NH₄Ac/50 mM triethylammonium acetate (TEAA; MilliporeSigma), adjusted with acetic acid (Fisher Scientific) to obtain the desired final pH and incubated on ice for 30 min."}, "[5]": {"settings": "fused at its n-terminus to a nanoparticle"}}, "note": "Numbering of substitutions follows the chain as printed. In names and notes the source's numbering stands. Entries after “also recorded” stand apart in the source; their conditions may differ."}
{"molecule": "B1", "values": [{"measurement": "kinetics of liposome disruption relative to pRO2.3, nanoparticle fusion", "setting": "[1]; [5]", "value": "slower kinetics"}, {"measurement": "liposome disruption better than pRO2.3, nanoparticle fusion", "setting": "[1]; [5]", "value": "5-10%"}]}
{"molecule": "B2", "values": [{"measurement": "kinetics of liposome disruption relative to pRO2.3, nanoparticle fusion", "setting": "[1]; [5]", "value": "slower kinetics"}, {"measurement": "liposome disruption relative to pRO2.3, nanoparticle fusion", "setting": "[1]; [5]", "value": "close as well as pRO2.3"}]}
{"molecule": "B3", "values": [{"measurement": "pH response of oligomeric state (pH-induced disassembly)", "setting": "[2]", "value": "more pH-sensitive than design pRO-3"}, {"measurement": "reversibility of disassembly", "setting": "[2]", "value": "re-association of monomers into trimer"}, {"measurement": "pH-dependent liposome disruption", "setting": "[1]", "value": "did not exhibit any liposome disruption"}, {"measurement": "liposome disruption activity at pH 4.75", "setting": "[1]", "value": "does not"}]}
{"molecule": "B4", "values": [{"measurement": "pH-dependent liposome disruption", "setting": "[1]", "value": "caused pH-dependent liposome disruption"}, {"measurement": "liposome disruption activity at pH 4.75", "setting": "[1]", "value": "shows liposome disruption activity"}]}
{"molecule": "B5", "values": [{"measurement": "folding stability by GdmCl denaturation", "setting": "[3]", "value": "no change"}, {"measurement": "folding stability by GdmCl denaturation", "setting": "[3]; listed as 2L6C3_13", "value": "no destabilization"}, {"measurement": "pH response of oligomeric state (pH-induced disassembly)", "setting": "[2]", "value": "no change in oligomeric state; also recorded: no significant pH response"}, {"measurement": "pH response of oligomeric state (pH-induced disassembly)", "setting": "[2]; listed as 2L6C3_13", "value": "not pH-sensitive"}]}
{"molecule": "B6", "values": [{"measurement": "binding result", "setting": "[4]", "value": "binds"}]}
{"molecule": "B7", "values": [{"measurement": "binding result", "setting": "[4]", "value": "binds"}]}
{"molecule": "B8", "values": [{"measurement": "folding stability by GdmCl denaturation", "setting": "[3]", "value": "lowest stability"}, {"measurement": "cooperativity of the pH-induced transition", "setting": "[2]", "value": "least cooperative design tested"}, {"measurement": "pH transition point of disassembly (pH set point, pH0)", "setting": "[2]", "value": "~4", "unit": "pH"}, {"measurement": "reversibility of disassembly", "setting": "[2]", "value": "Re-association was induced"}]}
{"molecule": "B9", "values": [{"measurement": "pH-dependent liposome disruption", "setting": "[1]", "value": "attenuation of pH-induced liposome disruption"}, {"measurement": "pH-dependent liposome disruption", "setting": "[1]; listed as pRO-2170N", "value": "attenuates liposome activity"}]}
{"molecule": "B10", "values": [{"measurement": "folding stability by GdmCl denaturation", "setting": "[3]", "value": "increases stability"}, {"measurement": "cooperativity of the pH-induced transition", "setting": "[2]", "value": "Neither of the mutations substantially affect the cooperativity"}, {"measurement": "pH transition point of disassembly (pH set point, pH0)", "setting": "[2]", "value": "decreases the transition pH"}]}
